The target of the data set is T1, POLγA A449T (UniProt P54099 26-1218, A450T).
T1 sequence: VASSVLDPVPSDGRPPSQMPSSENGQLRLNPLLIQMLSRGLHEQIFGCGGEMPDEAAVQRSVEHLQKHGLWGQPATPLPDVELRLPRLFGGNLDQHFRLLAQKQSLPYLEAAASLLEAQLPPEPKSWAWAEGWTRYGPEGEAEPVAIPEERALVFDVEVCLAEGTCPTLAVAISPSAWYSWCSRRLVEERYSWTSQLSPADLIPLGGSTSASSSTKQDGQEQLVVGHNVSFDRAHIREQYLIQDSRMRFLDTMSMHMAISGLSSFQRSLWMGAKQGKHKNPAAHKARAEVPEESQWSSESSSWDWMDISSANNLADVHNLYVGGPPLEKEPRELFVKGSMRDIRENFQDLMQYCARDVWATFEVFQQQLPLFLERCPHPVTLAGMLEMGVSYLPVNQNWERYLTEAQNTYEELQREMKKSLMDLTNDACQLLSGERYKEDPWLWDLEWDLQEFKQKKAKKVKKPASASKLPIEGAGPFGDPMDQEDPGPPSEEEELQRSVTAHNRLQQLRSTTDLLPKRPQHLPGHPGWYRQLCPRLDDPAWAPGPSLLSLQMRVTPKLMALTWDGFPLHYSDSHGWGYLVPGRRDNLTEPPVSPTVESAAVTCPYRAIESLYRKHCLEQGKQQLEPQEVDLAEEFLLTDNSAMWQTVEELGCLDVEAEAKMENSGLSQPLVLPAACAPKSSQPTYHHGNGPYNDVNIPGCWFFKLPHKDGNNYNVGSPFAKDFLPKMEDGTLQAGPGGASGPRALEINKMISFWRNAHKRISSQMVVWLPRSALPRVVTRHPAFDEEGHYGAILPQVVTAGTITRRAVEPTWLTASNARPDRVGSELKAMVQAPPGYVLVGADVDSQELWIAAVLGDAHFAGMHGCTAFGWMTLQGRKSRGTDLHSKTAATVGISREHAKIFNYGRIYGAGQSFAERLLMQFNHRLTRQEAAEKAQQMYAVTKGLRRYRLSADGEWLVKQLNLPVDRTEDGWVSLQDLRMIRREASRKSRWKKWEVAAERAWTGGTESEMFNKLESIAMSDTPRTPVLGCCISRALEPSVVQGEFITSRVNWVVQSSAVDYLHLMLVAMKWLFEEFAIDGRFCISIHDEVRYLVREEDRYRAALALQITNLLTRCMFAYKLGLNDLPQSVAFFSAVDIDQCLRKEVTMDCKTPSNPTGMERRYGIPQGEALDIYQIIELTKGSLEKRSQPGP
The experiment in a line: EMSA; POLγA alone; 10 mM MgCl2, ddGTP, dCTP, ATP; Kd in Suppl. Fig. 5A, value not in material; EMSA: 10 fmol DNA in 15 µl, 20 mM Tris-HCl pH 7.8, 1 mM DTT, 0.1 mg/ml BSA, 10 mM MgCl2, 10% glycerol, 2 mM ATP, 0.3 mM ddGTP, 3 mM dCTP, RT 10 min; 6% native PAGE 0.5x TBE. As to conditions: protein: recombinant; label: 5'-32P on strand 2 (21-mer); 5' overhang 15 nt on strand 1; 21 bp duplex; primer-template.

B1: 36-nt/21-nt primed template (mixed)
DNA 1: TTTTTTTTTTATCCGGGCTCCTCTAGACTCGACCGC
DNA 2: GCGGTCGAGTCTAGAGGAGCC
For B1, the binding signal is roughly 3.4 fold weaker than WT.

For the origin of these results see article doi:10.1101/2020.09.10.291369, “In vivo and in vitro mechanistic characterization of a clinically relevant PolγA mutation”.
